Measured values taken from patent US20120277143A1 (Janssen / Centocor, published 2012).
Residue numbers refer to the chain shown, from its start.

T1: human IL4 (human, UniProt P05112 25-153, biotinylated in the SPR and competition assays (sites not given))
T1 construct: Peprotech #200-04, mature protein produced in E. coli; also called hIL4; Interleukin 4
T1 sequence: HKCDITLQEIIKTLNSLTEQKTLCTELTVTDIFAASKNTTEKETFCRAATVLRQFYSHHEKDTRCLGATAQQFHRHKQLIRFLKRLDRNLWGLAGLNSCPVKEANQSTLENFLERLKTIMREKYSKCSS

B1: C06_43G2 (designed binder)
chain: DLGKKLLEAARAGQDDEVRILMANGADVNAKDVTGETPLHLASWEGHLEIVEVLLKHGADVNAQDLFGITPLHLAAATDGHLEIVEVLLKNGADVNATDSNGFTPLHLAASYGHLEIVDVLLKNGADVNAHDFDGFTPLHLAASWGHLEIVEVLLKYGADVNAQDKFGKTAFDISIDNGNEDLAEILQKLN
notes: ankyrin repeat protein; His-tagged, IMAC-purified
B2: C06_20B8 (designed binder)
chain: DLGKKLLEAASAGQDDEVHILMANGADVNAVDHDGFTPLHLAAADGHLEIVEVLLKHGADVNADDNFGWTPLHLAAFFGHLEIVEVLLKHGADVNAKDQTGLTPLHLAAVDGHLEIVEVLLKHGADVNAQDKFGKTAFDISIDNGNEDLAEILQKLN
notes: as for B1
B3: C06_42C7 (designed binder)
chain: B2 chain with H19R
notes: as for B1
B4: C06_28D4 (designed binder)
chain: B2 chain with K5E, H123N
notes: as for B1
B5: C06_53E9 (designed binder)
chain: DLGKELLEAASAGQDDEVHILMANGADVNASDKDGSTPLHLAAVYGHLEIVEVLLKYGADVNAEDMNGYTPLHLAAADGHLEIVEVLLKYGADVDAKDRTGWTPLHLAGEFGHLEIVEVLLKYGADVNAQDKFGKTAFDISIDNGNEDLAEILQKLN
notes: as for B1
B6: C06_13A10 (designed binder)
chain: DLGKKLLEAARAGQDDEVRILMANGADVNVSDRIGNTPLHLAAVYVHLEIVEVLLKNGADVNALDDDGLTPLHLAAADGHLEIVEVLLKHGADVNATDSHVWTPLHLAAFFGHLEIVEVLLKYGADVNAQDKFGKTAFDISIDNGNEDLAEILQKLN
notes: as for B1
B7: C06_42A11 (designed binder)
chain: DLGKKLLEAASVGQDDEVHILMANGADVNATDAWGLTPLHLAALLGHLEIVEVLLKHGADVNAHDETGFTPLHLAAVEGHLEIVEVLLKYGADVNASDILGRTPLHLAANFGHLEIVEVLLKHGADVNAQDKFGKTAFDISIDNGNEDLAEILQKLN
notes: as for B1
B8: C06_4A7 (designed binder)
chain: B7 chain with S11R, V12A, H19R, T31E, A33D, L44M, H57Y, H64K, E66D, H123Y
notes: as for B1
B9: C06_44C12 (designed binder)
chain: DLGKKLLEAASAGQDDEVHILMANGADVNALDDSGYTPLHLAAEDGHLEIVEVLLKHGADVNAADRMGDTPLHLAAFVGHLEIVEVLLKYGADVNAVDLAGVTPLHVAAFYGHLEIVEVLLKYGADVNAQDKFGKTAFDISIDNGNEDLAEILQKLN
notes: as for B1
B10: C06_24H1 (designed binder)
chain: B9 chain with S11R, H19R, L31H, D33N, Y36F, D45I, H57Y, Y123N
notes: as for B1
B11: C06_48F3 (designed binder)
chain: B9 chain with S11R, H19R, L31F, Y36L, E44D
notes: as for B1
B12: C06_44F6 (designed binder)
chain: B9 chain with K5E, S11R, A64M, R66N, M67I, D69N, P71S, V78D, Y123H
notes: as for B1
B13: C06_19C3 (designed binder)
chain: DLGKKLLEAARAGQDDEVRILMANGADVNATDDWGDTLLHLAATDGHLEIVEVLLKNGADVNAIDAMGMTPLHLAAVYGYLEIVEVLLKNGADVNAMDFSGFTPLHLAAFSGHLEIVEVLLKYGADVNAQDKFGKTAFDISIDNGNEDLAEILQKLN
notes: as for B1
B14: C06_54C2 (designed binder)
chain: B13 chain with A108T
notes: as for B1
B15: C06_17A11 (designed binder)
chain: B13 chain with T31I, D33E, L38P, T44I, D45E, N57Y, I64S
notes: as for B1
B16: C06_19F8 (designed binder)
chain: DLGKKLLEAARAGQDDEVRILMANGADVNATDDWGDTLLHLAATDGHLEIVEVLLKNGADVNASDSQGLTPLHLAAYYGHLEIVEVLLKYGADVNANDHHGITPLHLAAFAGHLEIVEVLLKYGADVNAQDKFGKTAFDISIDNGNEDLAEILQKLN
notes: as for B1
B17: C06_50E5 (designed binder)
chain: B13 chain with V28A
notes: as for B1
B18: C06_26H2 (designed binder)
chain: DLGKKLLEAARAGQDDEVRILMANGADVNAYDSSGDTPLHVAAIDGHLEIVEVLLKHGADVNASDASGDTPLHLAADFGHLKIVEVLLKHGADVNAEDMIGITPLHLAAYNGHLEIVEVLLKNGADVNASDVHGFTPLHLAAFIGHLGIVEVLLKYDADVNAQDKFGKTAFDISIDNRNEDLAEILQKLN
notes: as for B1
B19: C06_14A4 (designed binder)
chain: B7 chain with S11R, V12A, H19R, H123Y
notes: as for B1

target: T1, human IL4; assay: Luminex competition, 67 pM biotin-IL4 binding to IL4RA-Fc beads
Procedure: For biotinylation of IL4, recombinant human IL4 (Peprotech) was biotinylated at a 4:1 ratio using EZ-Link NHS-LC-Biotin (Pierce, #21336) for 2 hours at RT. The protein was dialyzed in PBS overnight to remove excess biotinylation reagent. Competition binding for cynomologous IL4 (SEQ ID NO: 5) was performed using the isolated protein biotinylated in the same manner.
AR protein inhibition of IL4 binding to IL4 RA was assessed using IL4 RA-Fc (R&D Systems), comprising the Gly24-His232 which represents the ECD (SEQ ID NO: 5) fused to a human IgGl-Fc and therefor a disulfide linked homodimer. The protein was conjugated to carboxylated Luminex microspheres according to the manufacturer's protocol. For neutralization experiments, 5000 IL4RA-Fc conjugated beads in 50 μl were added to each well of a 96-well filter plate (Millipore). Biotinylated human IL4 was mixed with an appropriate dilution of AR protein in Luminex Assay Buffer (PBS, 1% BSA, pH 7.4) to give a final concentration of 67 pM IL4. The plate was incubated for 1 hour at RT in the dark on a plate shaker, set to shake vigorously to avoid bead aggregation. The plate was washed twice with 150 μl of wash buffer (PBS, 0.1% BSA, pH 7.4, 0.05% Tween-20) using a vacuum manifold followed by the addition of 50 μl of Streptavidin PE at 25 μg/ml and incubated at RT for 20 minutes. The plates were washed again and 150 μl of sheath fluid was added and the plate was placed on the shaker for 5 minute. Plates were read using a Luminex® 100 system; data were plotted as a function of AR protein concentration. IC₅₀ values were determined by fitting the data to the equation for sigmoidal dose response using PRISM software (GraphPAD PRISM) (Table 6).

IC50	Binder
0.0235 nM	B1
0.0205 nM	B2
0.0459 nM	B3
0.0353 nM	B4
0.0178 nM	B5
0.0306 nM	B6
0.0656 nM	B7
0.0443 nM	B8
0.0203 nM	B9
0.0717 nM	B10
0.0197 nM	B11
0.0158 nM	B12
0.0063 nM	B13
0.0168 nM	B14
0.0744 nM	B15
0.0176 nM	B16
0.0148 nM	B17
0.0314 nM	B18

target: T1, human IL4; assay: cell-based or functional assay

A549 TARC Inhibition IC50	HEK Stat6 Inhibition IC50	Type 1 Complex inhibition IC50	Binder
0.262 nM	0.0016 nM	0.0008 nM	B1
0.288 nM	0.004 nM	0.0038 nM	B2
	0.0068 nM		B3
	0.0032 nM		B4
	0.0143 nM		B5
0.621 nM	0.0054 nM	0.0066 nM	B6
0.325 nM	0.0193 nM	0.0032 nM	B7
	0.444 nM		B8
0.231 nM	0.0011 nM	0.0017 nM	B9
	0.241 nM		B10
	0.0047 nM		B11
0.142 nM	0.0064 nM	0.0249 nM	B12
	0.0015 nM		B13
	0.0032 nM		B14
	0.003 nM		B15
	0.0152 nM		B16
	0.0035 nM		B17
	0.0033 nM		B18

target: T1, human IL4; assay: SPR ProteOn, biotin-IL4 on neutravidin chip, 1:1 fit
Procedure: Purified binders selected as “hits” were ranked by their affinity on a ProteOn XPR-36 instrument (Bio-Rad). ProteOn is an optical biosensor instrument that measures protein-protein interactions in real time, based on Surface Plasmon Resonance technology similar to Biacore (GE). A rapid experimental protocol was performed as follows: On a GLC sensor chip (Bio-Rad), Neutravidin (Thermo Scientific) was covalently immobilized to a density of >5000 RU using amine coupling chemistry as described by the manufacturer. On one flow cell, biotinylated IL4 (Peprotech) was immobilized to a level of 250 RU, while another flow cell was used as reference, with neutravidin immobilized only. […] The retrieved values were used to rank the AR proteins by their affinity.

Kd	koff	kon	Binder
0.0427 nM	5.98e-05 s⁻¹	1.4e+06 M⁻¹ s⁻¹	B1
0.0809 nM	0.000163 s⁻¹	2.02e+06 M⁻¹ s⁻¹	B2
0.0978 nM	0.000179 s⁻¹	1.83e+06 M⁻¹ s⁻¹	B3
0.0856 nM	0.000138 s⁻¹	1.62e+06 M⁻¹ s⁻¹	B4
0.326 nM	0.000281 s⁻¹	862000 M⁻¹ s⁻¹	B5
0.0592 nM	0.000149 s⁻¹	2.52e+06 M⁻¹ s⁻¹	B6
0.0858 nM	2.73e-05 s⁻¹	318000 M⁻¹ s⁻¹	B19
0.0075 nM	5.43e-06 s⁻¹	727000 M⁻¹ s⁻¹	B7
0.0436 nM	3.77e-05 s⁻¹	864000 M⁻¹ s⁻¹	B9
0.174 nM	0.000151 s⁻¹	872000 M⁻¹ s⁻¹	B11
0.0967 nM	0.0002 s⁻¹	2.07e+06 M⁻¹ s⁻¹	B12
0.101 nM	9.73e-05 s⁻¹	962000 M⁻¹ s⁻¹	B13
0.4 nM	0.000161 s⁻¹	403000 M⁻¹ s⁻¹	B14
0.136 nM	0.00014 s⁻¹	1.03e+06 M⁻¹ s⁻¹	B15
1.41 nM	5.18e-05 s⁻¹	36600 M⁻¹ s⁻¹	B16
0.174 nM	0.000126 s⁻¹	725000 M⁻¹ s⁻¹	B17
0.0712 nM	0.000247 s⁻¹	3.47e+06 M⁻¹ s⁻¹	B18
